The subject of one experiment is EGFR. Kind of experiment: EGFR dimerization assay under PINK1-CTD overexpression. The format is cell-based. The following applies: CL1-5, PC9, H1975 and H3255 cells (FIG. 9A).
The subject of another experiment is EGFR pathway. Kind of experiment: Immunoblotting of EGFR pathway under PINK1-CTD overexpression. Format: cell-based. The text has this: FIGS. 9A and 9B show hindrance of PINK1-CTD to EGFR dimerization and activation.
(§1) It was next investigated the in vivo tumor growth of PINK1-CTD stably expressing CL1-5, PC9, H1975 and H3255 cells. It has been shown that PINK1-CTD inhibits EGFR activation. It not only downregulates EGFR downstream signaling in EGFR-addicted PC9, H1975 and H3255 cells but also attenuates STATS-Y705 phosphorylation in EGFR non-addicted CL1-5 cells (FIGS. 9A and 9B). […] In addition, the synthetic polypeptide PINK1-CTD (Genmedkia Biotechnology Corp.) was used in mouse xenograft model. 2 μM of CTD polypeptide or R9 peptide (as control group) was injected into the mouse every day or every two days (as shown by arrow in FIGS. 11A and 11B).
In general terms: In western blotting, separated proteins are transferred to a membrane and probed.

For experiment [1], the system named is CL1-5, PC9, H1975 and H3255 cells. As to the kind of experiment: Tumor xenografts of PINK1-CTD stably expressing lung cancer cells. The format is in vivo. The following applies: CL1-5, PC9, H1975 and H3255 xenografts (FIGS. 6B, 6E, 6H, 6K).
Text: FIGS. 6A-6L show tumor xenografts of shPINK1, PINK1 and PINK1-CTD stably expressing lung cancer cells. FIGs. A, D, G and J: PINK1 overexpression aggravated tumor growth in CL1-5 cells but suppressed tumor growth in PC9, H1975 and H3255 cells; FIGs. B, E, H and K: PINK1-CTD overexpression inhibited tumor growth in all cells tested; FIGs. C, F, I and L: PINK1 knockdown inhibited tumor growth in CL1-5 cells but promoted tumor growth in PC9, H1975 and H3255 cells. N=7 in each group.
as §1

In experiment [2] the test system is EGFR-TKD (amino acids 645-954). Kind of experiment: In vitro GST pull-down assay. As to conditions: recombinant GST-fused PINK1-CTD incubated with purified His-tagged EGFR-TKD; anti-His immunoblot (FIG. 3E). The format is binding. From the text: To dissect the interaction between PINK1 and EGFR, it was next investigated whether these two protein kinases interact directly and through which domains they interplay. It was established a flag-fused full-length EGFR construct, EGFR-flag, (amino acids 1-1210) and 8 serial truncated EGFR-flag constructs based on different EGFR functional domains (amino acids 1-378, 1-621, 1-644, 1-690, 1-954, 645-1210, 645-954, 955-1210) (FIG. 3A). Each of these 9 constructs was co-overexpressed with full-length PINK1 in HEK293 cells. The cell lysates were immunoprecipitated by anti-flag antibody and the immunoprecipitates were immunoblotted by PINK1 antibody. […] It was simultaneously established a myc-fused full-length PINK1 construct and another 7 truncated PINK1-myc constructs containing amino acids 1-509, 1-155, 156-509, 156-309, 310-428, 429-581 and 78-581, respectively (FIG. 3C). Each of these 8 constructs was co-transfected with full-length EGFR-flag in HEK293 cells. The cell lysates were immunoprecipitated by anti-myc antibody and immunoblotted with anti-flag antibody. […] Recombinant GST-fused PINK1-CTD (amino acids 510-581) and negative-control construct GST-fused PINK1310-428 (amino acids 310-428) were individually incubated with purified His-tagged EGFR-TKD (amino acids 645-954) and analyzed by immunoblotting with anti-His antibody (FIG. 3E). […]

Experiment [3] addresses T1, EGFR (HER1) (Homo sapiens, UniProt P00533).
T1 construct: endogenous in cells; host or cells: CL1-5, HOP62, PC9, H1975 lung cancer cells
Kind of experiment: EGFR (HER1) phosphorylation in lung cancer cells co-cultured with CTD polypeptide. The format is cell-based. The following applies: 2 μM, vs R9 control (FIG. 5A). From the text:
(§2) R9: a peptide consisting of 9 arginine residues.
(§3) To determine the interaction between PINK1-CTD and HER1 or HER2, PINK1-CTD polypeptide was co-cultured with CL1-5, HOP62, PC9 or H1975 cells. In this example, the used PINK1-CTD was synthesized from Genmedkia Biotechnology Corp., and it was conjugated with 9 arginine residues for membrane attaching and internalization. The group in which the cells were co-cultured with a peptide only having 9 arginine residues (R9) was used as control group.

For experiment [4], the target named is T2, EGFR (HER1) (Homo sapiens, UniProt P00533, L858R/T790M).
T2 construct: endogenous in cells; host or cells: CL1-5, HOP62, PC9, H1975 lung cancer cells
The experiment is described as above. Format: cell-based. As to conditions: H1975 cells; 2 μM; vs R9 control (FIG. 5A).
Text: as §2, §3

In experiment [5] the test system is EGFR (HER1). Described as above. Format: cell-based. The following applies: PC9 cells; 2 μM; vs R9 control (FIG. 5A).
Text: as §2, §3

The target of a further experiment is T3, HER2 (Homo sapiens, UniProt P04626).
T3 construct: endogenous in cells; host or cells: CL1-5 cells
As to the kind of experiment: HER2 phosphorylation in CL1-5 cells co-cultured with CTD polypeptide. Format: cell-based. The following applies: CL1-5 cell (FIG. 5B).
Text: as §2, §3

Experiment [6] relates to CL1-5. Kind of experiment: CL1-5 lung cancer mouse xenograft model, CTD treatment. Format: in vivo. The following applies: CL1-5 xenograft; 2 μM injected every day or every two days; vs R9 (FIG. 11A).
Text: as §2, §1

In experiment [7] the test system is H1975. Kind of experiment: H1975 lung cancer mouse xenograft model, CTD treatment. The format is in vivo. The following applies: 2 μM injected every day or every two days, vs R9 (FIG. 11B).
Text: as §2, §1

For experiment [8], the system named is CL1-5. As to the kind of experiment: In vitro MTT assay, CL1-5. The format is cell-based. As to conditions: 2 μM (FIG. 11C).
Experiment [9] relates to H1975. As to the kind of experiment: In vitro MTT assay, H1975. Format: cell-based. The following applies: 2 μM (FIG. 11C).
In the next experiment the test system is PC9. Kind of experiment: In vitro MTT assay, PC9. As to conditions: 2 μM (FIG. 11C). The format is cell-based. (Tetrazolium assays rely on reduction of a dye to a coloured formazan, in cell work by metabolically active cells.)
For the next experiment, the system named is Hop62. As to the kind of experiment: In vitro MTT assay, Hop62. Format: cell-based. As to conditions: 2 μM (FIG. 11C).

B1: PINK1-CTD: PINK1 C-terminal domain, amino acids 510 to 581 of PINK1 (SEQ ID NO: 1); overexpressed / stably expressed in cells (protein, listed as Homo sapiens)
chain: SLWGEHILALKNLKLDKMVGWLLQQSAATLLANRLTEKCCVETKMKMLFLANLECETLCQAALLLCSWRAAL
Turning to B1, the “EGFR dimer to monomer ratio” value with EGFR is “a decrease in EGFR dimer to monomer ratio”. In addition, in the experiment with EGFR pathway (EGFR-addicted PC9, H1975 and H3255 cells (FIG. 9B)), the EGFR downstream signaling entry is recorded as “concurrently downregulated”. For the same molecule, in the experiment on EGFR pathway (all cells analyzed (FIG. 9B)), the “phosphorylated EGFR-Y1068 to total EGFR ratio” value is given as “a decrease in phosphorylated EGFR-Y1068 to total EGFR ratio”. For the same molecule, the STAT3-Y705 phosphorylation result in the experiment with EGFR pathway (wild-type EGFR CL1-5 cells (FIG. 9B)) is recorded as “only a decrease in STAT3-Y705 phosphorylation”. In experiment [1], the “in vivo tumor growth of PINK1-CTD stably expressing cells” value is “exerted inhibitory effects in all the cells tested”.

B2: GST-fused PINK1-CTD: Recombinant GST-fused PINK1 C-terminal domain, amino acids 510-581 of PINK1 (protein)
chain: SLWGEHILALKNLKLDKMVGWLLQQSAATLLANRLTEKCCVETKMKMLFLANLECETLCQAALLLCSWRAAL
modifications: left off: a dimerising Fc or GST
notes: Recombinant GST-fused PINK1 C-terminal domain, amino acids 510-581 of PINK1
Consider B2, for which the “direct binding to EGFR-TKD” value in experiment [2] is given as “directly bound to EGFR-TKD”.

B3: CTD polypeptide: Synthesized PINK1-CTD (Genmedkia Biotechnology Corp.), conjugated with 9 arginine residues for membrane attaching and internalization (peptide)
peptide: SLWGEHILALKNLKLDKMVGWLLQQSAATLLANRLTEKCCVETKMKMLFLANLECETLCQAALLLCSWRAALRRRRRRRRR
As to B3, the “EGFR (HER1) phosphorylation” value with EGFR (HER1) [3] (CL1-5 cells), with EGFR (HER1) [3] (HOP62 cells), with EGFR (HER1) [4] and in the experiment on EGFR (HER1) [5] was “effectively inhibited” throughout. The HER2 phosphorylation entry in the experiment with HER2 is “inhibited HER2 phosphorylation in CL1-5 cell in a dose-dependent manner”. The “in vivo tumor growth” value with CL1-5 [6] and with H1975 [7] was “inhibited in vivo tumor growth” in each case. The “cell viability (MTT)” value with CL1-5 [8], in the experiment with H1975 [9], in the experiment on PC9 and in the experiment on Hop62 was “reduced” in each case.

The values above are taken from patent publication US11214774B2, “PINK1 C-terminal domain polypeptide and methods using the same in cancer treatment” (National Taiwan University, priority 2015, dated 2022).
